Test: label from the status in PepcDB records

Sequence	protein production
MNIAANPHVQADQTVYLKDYQKPSFLVESINLDIQVYDDHTVVESTLVMNRQTAGDLVLLGRDLELKSIVLNGKNLEVGQYQLDHEQLVITHAPDQVILNTQVVIHPESNTQLEGLYKAGGDLFVTQNEPEGFRKITFYPDRPDVLAEFTTRVEADKKFPVLLANGNLLETGTVGENRHFAIWQDPTKKPSYLFACVIGDLAVLKDHYTTSEGREVALEIYAIEKDIPKCHIAMEALKHSMRWDEEHYGRPYDLDNYMIVAVSQFNMGAMENKGLNIFNTSCVLADEEYTTDAAIMRVQSVIAHEYFHNWTGNRITCRDWFQLCLKEGLTVFRDQSFSEDLQSAAVQRIDDVAVLKAHQFPEDAGPLSHPPRPDHFVEINNFYTATVYEKGAEINRMMSTLLGKEKFRQGTDEYFHRYDGQAVTVEDWVNALSAGSGVDLSNFLTWYNQPGTPKLEAKGEYDEQNHVYRLSFKQSLKVHPKYPNLKAVPVPVALALFNAETGEQYTLHCQDLFVNEVQDGVYLFDQDTATIEFSNVTQKPVVSLLRNFSAPVNLDFDYSDDELAFLIEYETNGFNQWQASQTLLERILLKDHAVEPYIKAIKNTLPDLVKKDPLLASRLFDVPTEGYLGSRIDHDYKPEAIQEKRNSVLETLARELGAFWKETYLSLDPSLQNDFSQAMGERALKNIMLSMMARQGDDSVFDLAYTQYSQTKNMSERLGALRVLVWNDAPQAQNALDDFYRRYKDEALSLDQWFMVQAANPNATAETIKALTEHPDYDLGTPNRVRSVSGGLSNNPVNAWSFGVEHYIGLAEYFDEKNPILGSRLLQVLSRWYTLAEPQRGNVQNALKDLQPHVKSKNVKETLNSILSV	failed
MAFNHLPAGVHDALGPLSVMPVTHSLPMAKNHRPDRSSSDTASSPSPGTVLDRLASGPSRASRITHTEHLPPREGRHAVWPDRIRSEVIAAVQAAGIEHPWAHQARAAEHALDGESVVVATGTASGKSLAYLVPALSALLDGSEAPNGRGATALYLAPTKALAADQCRSVKELSQPLGTAVRPAVYDGDTPVEEREWVRQYANYVLTNPDMLHRGILPAHPRWSSFLRALRYVVIDECHTYRGVFGSHVAQVLRRLRRLCARYGASPVFLLASATAAEPSVAASRLTGLRVVEVADDASPRGELVFALWEPPLTELHGEKGAPVRRTATAETADLLTDLTLQGVRSVAFVRSRRGAELIAVIAQERLAEIDRSLARRVAAYRGGYLPEERRALERALHSGELLGLAATTALELGVDVSGLDAVVIAGYPGTRASLWQQAGRAGRSGQGALAILVARDDPLDTFLVHHPEALFDQPVESTVLDPDNPYVLAPHLCAAAEELPLVEEDLALFGPSTADLLPQLEAAKLLRRRTKAWHWTRRERAADLTDIRGEGGRPVQIVEAGTGRLLGTVDAGAAHTTVHEGAVHLHQGRTYLVRELDLEDSVALVEEANPSYSTVARDTTAISVLETDVEVPWGEGRLCYGSVEVTNQVVSFLRRRLITGEVLGETKLDLPPRTLRTRAVWWTVTEDQLDAARITPEILGGALHAAEHASIGMLPLFATCDRWDIGGVSVPLHPDTLLPTVFVYDGHPGGAGFAERAFHTARDWLTATRQAIASCECDAGCPSCIQSPKCGNGNDPLHKRGAVRLLSVLLRGAAEQEKAGLPKEPARAAESSAD	failed
MFKKRLNKDKINDCYTWEEELPDGSYDMGFHGNLNHMEKGKSGYVTHKQLDKKLEVFKQDLLVELSEKFVTKEEFRAQGKQIKELQIEQKAQGKTLQLILEALQGINKRLDKLESKLEHHHHHH	not failed
MSKQAVYKIELKIFGYFILILMLSTITVILMLIVKNALEEVLIRYNENTLMTAKFLFCDVKKFSIVMYFFVFVIWSHLLLKRKVQYFINLSESTSEIAKGNFKVIIPVKREDEFGNLAKGINEIVEKFNFILKKEKEIEKTKIDLITNVSHDLRTPLTSILGYLELVENDQYKDEVALWYYIDIAYNKTKRLKVLIDDLFQLTTLNEHSMKLCKKEINIAELLKQLIGEYMLNFQKAGIRCRLKLTDEKLYVLGDAVLLIRAFENIIINCIKYSKTSEIMDVSVQRKGDMAVLNFINYGEPIPAIDIPYIFQRFYRVDKSRSDKLGGSGLGLAIAKNIIDITGGNIEVESDTTRTNFKIVLPCYGK	failed
MTRFIHTADWQIGRQYGQFDSDDAAVLAEARLEPVARIAAQASELAVDAVLVAGDVFDTQSVSDRTIRRLFGAMQAYEGPWVLIAGNHDAALADSVWSRARRLECIGTNVHVPQDTAAVELPLAGLAVLAAPLTQRHTYDDVTAAFDTMDSAAGLVRVGLAHGSVADRLPEQADAANPIAPDRAQRARLDYLALGDWHGCLRIDERTWYAGTPEPDRFRGNAPGYALLVEVAAPGAPPQVRQLEVGKYRWSHWVERLDLASDAEDLGHRLAGLQAGDVLRLELHGALSLARRWDALRRDVERAAARVRALVADSAGLVLEPDAADLAALSVDGYVGAAAARLQAMQGDGAQAAAARVALRLLLQYQRELAEGAS	failed
MMSIKWEQEWDRIYKEQGEVQSEILPTVKVEKDIFKRFGCKKVMDLGCGTGRHTIYLAQNGYQVFAVDISETGIEVTRAKAEKLNLTNIEFAQLDMRNLSVDDNLMDAIMCVWTSGHGTFEDARKNLKEMYRILRLGEILVIDYVSREDENYGKGTEIEKNTFINNVEGEENIPHHYFAKEEIEELYTDFSDVDINPVDYYFTDSYGTRHTIKAFVVIAVK	failed
MASSVILREDGFAPPKPSPTTHEKASTKGDRDGVECKNSDSEEECLVKKTVAAHTDYIYTQDLNLSP	failed
MSLDIEQQFLNDLDNQLWRAADKLRSNLDAANYKHVVLGLIFLKYVSDAFEERQQELTELFQKDDDDNIYYLPREDYDSDEAYQQAIAEELEIGDYYTEKNVFWVPKTARWNKLRDVITLPTGSVIWQDEQGEDVKLRSVSWLIDNAFDDIEKANPKLKGILNRISQYQLDADKLIGLINEFSLTSFNNPEYNGEKLNLKSKDILGHVYEYFLGQFALAEGKQGGQYYTPKSIVTLIVEMLEPYKGRVYDPAMGSGGFFVSSDKFIEKHANVKHYNASEQKKQISVYGQESNPTTWKLAAMNMVIRGIDFNFGKKNADSFLDDQHPDLRADFVMTNPPFNMKDWWHEKLADDPRWTINTNGEKRILTPPTGNANFAWMLHMLYHLAPTGSMALLLANGSMSSNTNNEGEIRKTLVEQDLVECMVALPGQLFTNTQIPACIWFLTKDKNAKNGKRDRRGQVLFIDARKLGYMKDRVLRDFKDEDIQKLADTFHNWQQEWSEENNQAGFCFSADLALIRKNDFVLTPGRYVGAEAEEDEGHHHHHH	not failed
MLVAPFASQLPFVEETLHSSYQALQWGKNIFAIAHKTLSARLLNTVFPTEERTQPLSPELQAWLKERYEALLQQDWQDAAAGFYPATLLFDAPWEEFLRFYPLLLLDLPQMWQRARSRQFQEFAHNVRLEDYPQYYRQNFHYQTDGYLSDTSANLYDIQVELLFGGTADAMRRRVIAPIAQQVVAHPPTPPLRILDVACGTGRTLKQLRYAFPGAVLFGLDLSPAYLRKANALLATQTGALPQLIQGNAESLPYVDSYFSAITCVFLFHELPAPVRQNVIHECARVLQPGGIFVICDSIQSLDSPEQRPMMENFANLFHEPFYRNYIEDDLNLRLEKAGLVVKEVQHHFMSKYWVAVKPSLEHHHHHH	failed
MNSYDFITALVPIILIIIGLGIIKKPAYYVIPISLIATVAIVIFYKNLGIVNTSLAMLEGALMGIWPIATVIIAAIFTYKMSEDQKDIETIKNILSNVSSDRRIIVLLVAWGFGNFLEGVAGYGTAVAIPVSILIAMGFEPFFACLICLIMNTSSTAYGSVGIPITSLAQATNLDVNIVSSEIAFQLILPTLTIPFVLVILTGGGIKGLKGVFLLTLLSGMSMAISQVFISKTLGPELPAILGSILSMTITIVYARFFGNKETTERQSKNTISLSKGIIACSPYILIVTFIVLVSPLFNKIHEYLKTFQSTISIYPEANPLHFKWIISPGFLIILATTISYSIRGVPMLKQLKIFTLTLKKMALSSFIIICIVAISRLMTHSGMIRDLANGISIITGKFGPLFSPLIGAIGTFLTGSDTVSNVLFGPLQTQMAENIGANPYWLAAANTTGATGGKMISPQNITIATTTAGLIGQEGKLLSKTIIYALYYILATGLLVYLV	failed
APGTLVLAGTPIGDITDAPPRLAQELAGADVVAAEDTRRLRRLTQALGVQPAGRVVSYFEGNEAARTPELVEALLDGSRVLLVTDAGMPSVSDPGYRLVAAAVAKDIRVTAVPGPS	failed
MAYTTTVKLDGDTKTYTLSPTVKKYTLMDLGFVKGRSGAFSFERSLDPTSPYQAAFKLKMTVNADLTGFKMTTVTGNGVQRANIFKNDAHPEAVEQLRYILANFIERDILTTD	not failed
MPQVALFGAVGAIGQSIARTLRSQGQPYRVVGRSQSSLLKAYGADPLAEPVTWDPDQPASVEAAAAGIDTLIYLVGVDYWRFELHPQLMRQTLDGAIAAGVRRILLIGTVYPYGMARSNPVAEQHPRQPNSFKGRMRKAQEDLLWKAHADGKIQATVLRLPDFYGPGVDKSLLHGAFQAAVQGGTANLVGPLDRPHEFVFVPDVGPVVCRLIQQPEAFGKTWHLGGAGVTSQRELLELIRQHGGARFKQRVIGKPLLRLLGLFDPLLREMVEMHYLISSPLILDDSALQALIGPIAKTSYTEGVRQTLAASAGAPQNVKR	failed
MSQTKIEWADKVWNPVSGCTKISEGCQNCYAERMSKRLAGRCGYPAEEPFKVTPHPEKLGEPLKWRKPLRIFVNSMSDLFHADVPDKFIINVLSMIAEASHHTFLILTKRPERMRELLNHDTIANDVWLQTSRGVNAERSPWPLPNLWLGVSAENQAAADERIPILLQTPAAVRFVSVEPMLSEVNLSRYLKRPICKHWGRNGDPNIYGRYFWGKQALVGAGWVGIDWVICGGETGPGARPMHPVWVRDLRDQCRVAGTPFFFKSFGEYVRVGECMNEEDDEEFYSKSSAAGTNVQRLNLQGGMGYHGPKSIYMQRIGKKRAGRELDGRTWEEFPLEHHHHHH	failed
MIWMAEIEGIYTIWLREMKRFFRYRSRIVTSIVTPLLWLIIFGTGLGAAVRFGGVPGGYKAFIYPGIIGQTVLFTSIFSGVSVIIDRQYGFLKEILVAPISRESMVVGKALGISTASMIQAAILLALSFIVGITMSPQCFIVSMVIALIISMGLGGLGLVIAAFTDSMEGFNLIMSFIVLPIFLLSGALFPITGLPAWLQGAVYINPLTYAVDALRFTILRRSVLPLEVNLLVITIFAVIAVLIAAFLFNRKEQNLM	failed
MSENENSQEKNELLDALNSVEEVNVGDVVKGEVLAIDDDKQVIVGIQGTGVEGVVPLKELSTQRVDDVNEAAKVGDVLDLVVISRIGSDKENGSYLLSHRRLEARKVWDDVEKEYEAGHTIKAPVTQVVKGGLVVDAGVRGFIPASMIDDHYVEDLNAYKGQELELKIIEIEPSENRLILSHRAVVEKQREAQREEALKTLQAGDVVEGKVARLTNFGAFVDLGGIDGLVHVSEISYERVEKPADVLKVGQEVTVKILSVDADRERVSLSIKATLPEPWDGIEEKAPQGAVLDGKVKRLTSFGAFVEVFPGVEGLVHISQISHQHIATPNDVLKVGQEIKVKVLDVRPDEKRLALSIKALEEKPQTADDDNESQPERRSNNNRRRNNNRDNRTASERSTANAPEESTGFTLGDLIGDELKNAESNNDENLEHHHHHH	failed
MSDIQVRHVEADKQFVIAVDGEDAGFAGYAERDGHRNFNHTVIDPRFRGQGLSQPLIQQALEATHADGLGVIATCSAVVGFVQKNPEFRDYLA	failed
MVPHIDGLFLRDVEAVLTAPDRADLPVLNPGLGTWVDKTTVTWFKFNHQLAVTIGDILQRNFHHAWPTYRMIPVVFKASTLCMHTWDSRHTLTVWTQFNLVARTLYRDNMRAMKRRWARGLDKSRWMTTTVWNDLVDMFTEFGPDDVGFMS	failed

Source: a protein production outcome set (Wang et al. 2014)
